± gives the standard deviation of the averaged measurements.
How the values were obtained:
Saccharomyces cerevisiae [1] = test: protein stability index of tFT-peptide fusion (C-terminal peptide) (PSI (0-1 scale)); higher = more stable (slower turnover); conditions: genetic background: wild type; temperature: 30 C
Saccharomyces cerevisiae [2] = test: as above
Experimental: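 MPS profiling in S. cerevisiae of the tFT-X12 degron library: putative degron peptides plus stable controls, 12 aa, fused to the C-terminus of a sfGFP-mCherry timer. Cells are FACS-sorted into 8 mCherry/sfGFP bins and deep-sequenced. PSI runs from 0 (unstable) to 1 (stable). Backgrounds are wild type, das1Δ and doa10Δ at 30 °C, and wild type, das1Δ, cdc34-1 and cdc53-1 at 37 °C; 2-3 technical replicates each.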

[3] = genetic background: cdc34-1, temperature: 37 C
[4] = genetic background: cdc53-1, temperature: 37 C
[5] = genetic background: das1 deletion, temperature: 30 C
[6] = genetic background: das1 deletion, temperature: 37 C
[7] = genetic background: doa10 deletion, temperature: 30 C
[8] = genetic background: wild type, temperature: 30 C
[9] = genetic background: wild type, temperature: 37 C
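Further: PSI is a weighted mean of sequencing reads over stability bins, variants kept only with over 10 reads, mCherry proximal and sfGFP distal, peptide attached via GGGS linker.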

Sequence | protein stability index (Saccharomyces cerevisiae [1]) | protein stability index (Saccharomyces cerevisiae [2]; [3]) | protein stability index (Saccharomyces cerevisiae [2]; [4]) | protein stability index (Saccharomyces cerevisiae [2]; [5]) | protein stability index (Saccharomyces cerevisiae [2]; [6]) | protein stability index (Saccharomyces cerevisiae [2]; [7]) | protein stability index (Saccharomyces cerevisiae [2]; [8]) | protein stability index (Saccharomyces cerevisiae [2]; [9])
RNDCAYHVLQIV | 0.228 ± 0.0084 | 0.607 ± 0.016 | 0.722 ± 0.054 | 0.646 ± 0.015 | 0.7115 ± 0.0031 | 0.181 ± 0.0022 | 0.202 ± 0.035 | 0.381 ± 0.0042
LVIFSLLFSFSH | 0.32 ± 0.028 | 0.22 ± 0.011 | 0.325 ± 0.047 | 0.212 ± 0.032 | 0.394 ± 0.018 | 0.194 ± 0.0075 | 0.232 ± 0.015 | 0.3837 ± 0.00069
VAGGFWCWGMVG | 0.4642 ± 0.0023 | 0.718 ± 0.034 | 0.782 ± 0.015 | 0.663 ± 0.0093 | 0.788 ± 0.013 | 0.392 ± 0.016 | 0.436 ± 0.024 | 0.677 ± 0.024
GWVVVVCGVCCG | 0.285 ± 0.011 | 0.178 ± 0.0072 | 0.22 ± 0.033 | 0.208 ± 0.026 | 0.307 ± 0.016 | 0.167 ± 0.0077 | 0.196 ± 0.024 | 0.28 ± 0.012
KFWVVLIEIKYH | 0.172 ± 0.0091 | 0.0696 ± 0.0057 | 0.132 ± 0.03 | 0.159 ± 0.036 | 0.35 ± 0.092 | 0.0681 ± 0.015 | 0.0691 ± 0.036 | 0.1043 ± 0.00085
YPFSLVLGVFAF | 0.405 ± 0.033 | 0.367 ± 0.02 | 0.389 ± 0.022 | 0.298 ± 0.028 | 0.456 ± 0.0094 | 0.285 ± 0.01 | 0.325 ± 0.0062 | 0.4104 ± 0.0034
LSFLLLLGCFGS | 0.466 ± 0.076 | 0.5966 ± 0.0035 | 0.6236 ± 0.0046 | 0.476 ± 0.019 | 0.59 ± 0.027 | 0.453 ± 0.017 | 0.462 ± 0.014 | 0.589 ± 0.018
LASSCYRHLLVV | 0.137 ± 0.002 | 0.242 ± 0.0047 | 0.323 ± 0.0065 | 0.289 ± 0.029 | 0.4343 ± 0.0036 | 0.0628 ± 0.016 | 0.0775 ± 0.017 | 0.078 ± 0.044
IFSGCRIALSVF | 0.181 ± 0.0085 | 0.0412 ± 0.013 | 0.052 ± 0.021 | 0.188 ± 0.018 | 0.165 ± 0.012 | 0.104 ± 0.0034 | 0.116 ± 0.01 | 0.0944 ± 0.039
RRMGLRLFLLWM | 0.4517 ± 0.0011 | 0.649 ± 0.045 | 0.657 ± 0.0097 | 0.534 ± 0.026 | 0.67 ± 0.015 | 0.354 ± 0.021 | 0.348 ± 0.032 | 0.539 ± 0.015
AFRSPLLMLLVL | 0.3468 ± 0.00084 | 0.336 ± 0.0057 | 0.381 ± 0.0068 | 0.32 ± 0.028 | 0.426 ± 0.01 | 0.32 ± 0.0039 | 0.262 ± 0.031 | 0.354 ± 0.0056
RGPAYATCHLLC | 0.232 ± 0.028 | 0.599 ± 0.041 | 0.7316 ± 0.0053 | 0.645 ± 0.012 | 0.75 ± 0.0094 | 0.119 ± 0.013 | 0.141 ± 0.022 | 0.257 ± 0.015
SVSQTSILDSRL | 0.71 ± 0.0074 | 0.7109 ± 0.0043 | 0.756 ± 0.022 | 0.668 ± 0.012 | 0.74121 ± 0.00058 | 0.667 ± 0.018 | 0.675 ± 0.012 | 0.7313 ± 0.0043
HLRWYITGIVWF | 0.4216 ± 0.00048 | 0.4885 ± 0.0024 |  | 0.413 ± 0.11 | 0.671 ± 0.17 | 0.311 ± 0.019 | 0.359 ± 0.087 | 0.543 ± 0.017
HRARILLIRICP | 0.415 ± 0.017 | 0.486 ± 0.024 | 0.517 ± 0.011 | 0.411 ± 0.024 | 0.64 ± 0.019 | 0.5034 ± 0.0046 | 0.42 ± 0.032 | 0.585 ± 0.029
CGFVFFVLVVFW | 0.15 ± 0.035 | 0.112 ± 0.0055 | 0.17 ± 0.0063 | 0.12 ± 0.033 | 0.229 ± 0.0079 | 0.15 ± 0.0054 | 0.114 ± 0.025 | 0.193 ± 0.026
PSSPTPPPSSSP | 0.353 ± 0.039 | 0.655 ± 0.021 | 0.726 ± 0.011 | 0.664 ± 0.017 | 0.73 ± 0.0086 | 0.679 ± 0.017 | 0.673 ± 0.011 | 0.7306 ± 0.0015
VVLWTFLLEVSA | 0.134 ± 0.034 | 0.0259 ± 0.011 | 0.0344 ± 0.0033 | 0.0674 ± 0.015 | 0.0951 ± 0.0053 | 0.0508 ± 0.019 | 0.0755 ± 0.033 | 0.101 ± 0.014
FITFLVFVGFFL | 0.355 ± 0.034 | 0.393 ± 0.06 | 0.421 ± 0.0078 | 0.313 ± 0.022 | 0.495 ± 0.026 | 0.263 ± 0.0094 | 0.295 ± 0.026 | 0.448 ± 0.0071
VISVFAISTRVD | 0.475 ± 0.0055 | 0.489 ± 0.076 | 0.4901 ± 0.00049 | 0.409 ± 0.057 | 0.5675 ± 0.0051 | 0.398 ± 0.01 | 0.414 ± 0.018 | 0.513 ± 0.066
FSQGFRSPSECL |  | 0.712 ± 0.03 | 0.764 ± 0.014 | 0.63 ± 0.016 | 0.765 ± 0.036 | 0.647 ± 0.011 | 0.655 ± 0.023 | 0.7608 ± 0.0072
LVPLSLLLCFFV | 0.3058 ± 0.0028 | 0.515 ± 0.027 | 0.5647 ± 0.0036 | 0.411 ± 0.028 | 0.551 ± 0.0063 | 0.178 ± 0.0019 | 0.205 ± 0.015 | 0.354 ± 0.0088
MLIAISASAARF | 0.4184 ± 0.00049 | 0.452 ± 0.037 | 0.5819 ± 0.0017 | 0.417 ± 0.027 | 0.501 ± 0.016 | 0.45 ± 0.02 | 0.44 ± 0.034 | 0.498 ± 0.0095

Source: the supplement of paper PMC10724198
